From patent US20260117202A1

How the values were obtained:
Experiment in all cases: sandwich ELISA, AM14 coated, supernatant 1:10
FHS-74 (RSV strain A2) = FHS-74 (RSV strain A2) (UniProt P03420)
FHS-44 (RSV strain A2) = FHS-44 (RSV strain A2) (UniProt P03420)
FHS-87 (RSV strain A2) = FHS-87 (RSV strain A2) (UniProt P03420)
FHM-11 (RSV strain A2) = FHM-11 (RSV strain A2) (UniProt P03420)
FHS-43 (RSV strain A2) = FHS-43 (RSV strain A2) (UniProt P03420)
FHM-16 (RSV strain A2) = FHM-16 (RSV strain A2) (UniProt P03420)
FHS-63 (RSV strain A2) = FHS-63 (RSV strain A2) (UniProt P03420)
FHS-97 (RSV strain A2) = FHS-97 (RSV strain A2) (UniProt P03420)
FHM-12 (RSV strain A2) = FHM-12 (RSV strain A2) (UniProt P03420)
FHS-82 (RSV strain A2) = FHS-82 (RSV strain A2) (UniProt P03420)
FHS-23 (RSV strain A2) = FHS-23 (RSV strain A2) (UniProt P03420)
FHM-19 (RSV strain A2) = FHM-19 (RSV strain A2) (UniProt P03420)
FHM-13 (RSV strain A2) = FHM-13 (RSV strain A2) (UniProt P03420)
FHS-47 (RSV strain A2) = FHS-47 (RSV strain A2) (UniProt P03420)
FHS-89 (RSV strain A2) = FHS-89 (RSV strain A2) (UniProt P03420)
FHS-5 (RSV strain A2) = FHS-5 (RSV strain A2) (UniProt P03420)
FHM-9 (RSV strain A2) = FHM-9 (RSV strain A2) (UniProt P03420)
FHM-1 (RSV strain A2) = FHM-1 (RSV strain A2) (UniProt P03420)
FHS-59 (RSV strain A2) = FHS-59 (RSV strain A2) (UniProt P03420)
FHM-23 (RSV strain A2) = FHM-23 (RSV strain A2) (UniProt P03420)
FHS-14 (RSV strain A2) = FHS-14 (RSV strain A2) (UniProt P03420)
FHS-95 (RSV strain A2) = FHS-95 (RSV strain A2) (UniProt P03420)
FHM-4 (RSV strain A2) = FHM-4 (RSV strain A2) (UniProt P03420)
FHM-22 (RSV strain A2) = FHM-22 (RSV strain A2) (UniProt P03420)
FHS-76 (RSV strain A2) = FHS-76 (RSV strain A2) (UniProt P03420)
FHM-17 (RSV strain A2) = FHM-17 (RSV strain A2) (UniProt P03420)
FHS-34 (RSV strain A2) = FHS-34 (RSV strain A2) (UniProt P03420)
FHS-61 (RSV strain A2) = FHS-61 (RSV strain A2) (UniProt P03420)
FHM-18 (RSV strain A2) = FHM-18 (RSV strain A2) (UniProt P03420)
FHS-62 (RSV strain A2) = FHS-62 (RSV strain A2) (UniProt P03420)
FHS-16 (RSV strain A2) = FHS-16 (RSV strain A2) (UniProt P03420)
FHS-25 (RSV strain A2) = FHS-25 (RSV strain A2) (UniProt P03420)
FHS-20 (RSV strain A2) = FHS-20 (RSV strain A2) (UniProt P03420)
FHS-93 (RSV strain A2) = FHS-93 (RSV strain A2) (UniProt P03420)
FHS-52 (RSV strain A2) = FHS-52 (RSV strain A2) (UniProt P03420)
FHS-21 (RSV strain A2) = FHS-21 (RSV strain A2) (UniProt P03420)
FHS-67 (RSV strain A2) = FHS-67 (RSV strain A2) (UniProt P03420)
FHS-41 (RSV strain A2) = FHS-41 (RSV strain A2) (UniProt P03420)
FHS-84 (RSV strain A2) = FHS-84 (RSV strain A2) (UniProt P03420)
FHS-65 (RSV strain A2) = FHS-65 (RSV strain A2) (UniProt P03420)
FHM-10 (RSV strain A2) = FHM-10 (RSV strain A2) (UniProt P03420)

Substance: AM14 monoclonal antibody
- OD value (FHS-74 (RSV strain A2)): 0.023 OD
- OD value (FHS-44 (RSV strain A2)): 0.039 OD
- OD value (FHS-87 (RSV strain A2)): 0.239 OD
- OD value (FHM-11 (RSV strain A2)): 0.006 OD
- OD value (FHS-43 (RSV strain A2)): 0.006 OD
- OD value (FHM-16 (RSV strain A2)): 0.26 OD
- OD value (FHS-63 (RSV strain A2)): 0.006 OD
- OD value (FHS-97 (RSV strain A2)): 0.006 OD
- OD value (FHM-12 (RSV strain A2)): 2.13 OD
- OD value (FHS-82 (RSV strain A2)): 0.063 OD
- OD value (FHS-23 (RSV strain A2)): 0.008 OD
- OD value (FHM-19 (RSV strain A2)): 0.367 OD
- OD value (FHM-13 (RSV strain A2)): 1.07 OD
- OD value (FHS-47 (RSV strain A2)): 1.32 OD
- OD value (FHS-89 (RSV strain A2)): 0.006 OD
- OD value (FHS-5 (RSV strain A2)): 2.24 OD
- OD value (FHM-9 (RSV strain A2)): 2.12 OD
- OD value (FHM-1 (RSV strain A2)): 2.29 OD
- OD value (FHS-59 (RSV strain A2)): 0.006 OD
- OD value (FHM-23 (RSV strain A2)): 1.89 OD
- OD value (FHS-14 (RSV strain A2)): 2.61 OD
- OD value (FHS-95 (RSV strain A2)): 0.007 OD
- OD value (FHM-4 (RSV strain A2)): 0.028 OD
- OD value (FHM-22 (RSV strain A2)): 1.98 OD
- OD value (FHS-76 (RSV strain A2)): 0.821 OD
- OD value (FHM-17 (RSV strain A2)): 0.006 OD
- OD value (FHS-34 (RSV strain A2)): 0.007 OD
- OD value (FHS-61 (RSV strain A2)): 0.008 OD
- OD value (FHM-18 (RSV strain A2)): 1.8 OD
- OD value (FHS-62 (RSV strain A2)): 0.01 OD
- OD value (FHS-16 (RSV strain A2)): 0.009 OD
- OD value (FHS-25 (RSV strain A2)): 0.007 OD
- OD value (FHS-20 (RSV strain A2)): 0.009 OD
- OD value (FHS-93 (RSV strain A2)): 0.009 OD
- OD value (FHS-52 (RSV strain A2)): 0.007 OD
- OD value (FHS-21 (RSV strain A2)): 0.008 OD
- OD value (FHS-67 (RSV strain A2)): 1.86 OD
- OD value (FHS-41 (RSV strain A2)): 0.006 OD
- OD value (FHS-84 (RSV strain A2)): 1.01 OD
- OD value (FHS-65 (RSV strain A2)): 1.73 OD
- OD value (FHM-10 (RSV strain A2)): 0.01 OD
